± gives the standard error. This sample holds only a part of the variants without activity.
B1: glmS ribozyme (parent)
chain: AUAAAAGCGCCAGAACUACAGAAAUGUAGUUGACGAGGAGGAGGUUUAUCGAAUUUUCGGCGGAUGCCUCCAAA

Columns and labels:
Conditions in all cases: with glucosamine-6-phosphate
[1] = variants of: B1; assay: self-cleavage kobs at 40 uM GlcN6P; higher = faster cleavage; RNA array
Summary of the method: (§1)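 A hybridised Cy3 probe tracked barcoded ribozyme variants, transcribed in situ by E. coli RNA polymerase on sequenced MiSeq chips, at 37 °C. The variants received 40 μM to 10 mM glucosamine-6-phosphate in HEPES/KCl/Mg(OAc)2 buffer. kobs came from decay fits and kcat and KM from weighted Michaelis–Menten fits.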

[2] = variants of: B1; assay: self-cleavage kobs at 160 uM GlcN6P; higher = faster cleavage; RNA array
Summary of the method: as §1

[3] = variants of: B1; assay: self-cleavage kobs at 640 uM GlcN6P; higher = faster cleavage; RNA array
Summary of the method: as §1

[4] = variants of: B1; assay: self-cleavage kobs at 2500 uM GlcN6P; higher = faster cleavage; RNA array
Summary of the method: as §1

[5] = variants of: B1; assay: self-cleavage kobs at 10000 uM GlcN6P; higher = faster cleavage; RNA array
Summary of the method: as §1

| Variant | self-cleavage kobs at 40 uM GlcN6P [1] [s⁻¹] | self-cleavage kobs at 160 uM GlcN6P [2] [s⁻¹] | self-cleavage kobs at 640 uM GlcN6P [3] [s⁻¹] | self-cleavage kobs at 2500 uM GlcN6P [4] [s⁻¹] | self-cleavage kobs at 10000 uM GlcN6P [5] [s⁻¹] |
| --- | --- | --- | --- | --- | --- |
| A42U G44A U65G | < 1e-05 | < 1e-05 | < 1e-05 | < 1e-05 | < 1e-05 |
| A53G U69A | 0.000147 ± 4e-05 |  | 0.000407 ± 0.0001 | 0.000305 ± 8.4e-05 | 8.92e-05 ± 2.1e-05 |
| C11A G29U C50G | 6.35e-05 ± 1.7e-05 | 0.000296 ± 0.00011 |  | 5.28e-05 ± 2.3e-05 |  |
| G37A A42C U47G | < 1e-05 | < 1e-05 | < 1e-05 |  |  |
| C11U C58G C67U U69G | 3.48e-05 ± 1.2e-05 |  |  |  | 6.72e-05 ± 1.3e-05 |
| A12U U31C G41A G60U | < 1e-05 |  |  |  |  |
| G40A A48U C61G | < 1e-05 |  |  |  | < 1e-05 |
| A6U C16A C34A G38C | < 1e-05 |  | < 1e-05 |  | < 1e-05 |
| A14G C50A G51A | < 1e-05 |  |  | < 1e-05 |  |
| G35C C71U | < 1e-05 |  | < 1e-05 | < 1e-05 | < 1e-05 |
| C11U G13U U57C G62C C67A | < 1e-05 |  |  |  |  |
| A6U A36G A64U | < 1e-05 | < 1e-05 | < 1e-05 | < 1e-05 | < 1e-05 |
| G41C G63A A64G | < 1e-05 |  |  |  | < 1e-05 |
| G9U G38A U56C G63U | < 1e-05 |  |  |  | < 1e-05 |
| U46G U56A | 5.1e-05 ± 7.3e-06 |  | 0.000601 ± 0.00017 |  | 0.00224 ± 0.00042 |
| A6G G51U U65A | < 1e-05 |  |  |  | < 1e-05 |
| G63C A64U | < 1e-05 |  | < 1e-05 | < 1e-05 | < 1e-05 |
| G35C A64U | < 1e-05 | < 1e-05 | < 1e-05 | < 1e-05 | < 1e-05 |
| G37A A53G | 0.000101 ± 2.3e-05 | 0.000212 ± 3.8e-05 | 0.000708 ± 0.00015 | 0.00163 ± 0.00063 | 0.00615 ± 0.0014 |
| G44U G59U U65G | < 1e-05 |  |  | < 1e-05 |  |
| G7U U57A | < 1e-05 | < 1e-05 | < 1e-05 |  | < 1e-05 |
| G7A G32U U47G C50U G63A C67G | 0.000556 ± 0.00014 |  |  |  | 0.000988 ± 0.00041 |

| Variant | self-cleavage kobs at 40 uM GlcN6P [1] [s⁻¹] | self-cleavage kobs at 160 uM GlcN6P [2] [s⁻¹] | self-cleavage kobs at 640 uM GlcN6P [3] [s⁻¹] | self-cleavage kobs at 2500 uM GlcN6P [4] [s⁻¹] | self-cleavage kobs at 10000 uM GlcN6P [5] [s⁻¹] |
| --- | --- | --- | --- | --- | --- |
| C10A G38U G40A | < 1e-05 | < 1e-05 | < 1e-05 | < 1e-05 | < 1e-05 |
| U2C | 0.000889 ± 0.00014 |  | 0.0102 ± 0.0023 | 0.00926 ± 0.003 | 0.0584 ± 0.014 |
| A6U C50G | 4.82e-05 ± 1.8e-05 | 6.77e-05 ± 2.7e-05 |  | 0.000434 ± 0.00021 | 2.57e-05 ± 1.3e-05 |
| A14G G51C A53C | < 1e-05 |  |  |  |  |
| C11G G32C G38A A42C G60C | < 1e-05 |  |  | < 1e-05 |  |
| A6G C16U U30A G43U G62U C70A | < 1e-05 |  |  |  | < 1e-05 |
| A42G U49C | < 1e-05 | < 1e-05 | < 1e-05 | < 1e-05 | < 1e-05 |
| A12C U54A | 0.000707 ± 7e-05 | 0.00199 ± 0.00034 | 0.0159 ± 0.0035 | 0.00841 ± 0.0015 | 0.0301 ± 0.0049 |
| G40C G44C | < 1e-05 |  |  |  | < 1e-05 |
| U54A C61U C71G | < 1e-05 |  |  |  |  |
| U31A C67A | 0.000109 ± 1.4e-05 | 0.000473 ± 8.4e-05 | 0.000764 ± 0.00012 |  | 0.00388 ± 0.00061 |
| A15U A39U U46A | < 1e-05 |  |  |  |  |
| U31C A39G C50U U54G C58A G60C G62U | < 1e-05 |  |  |  | < 1e-05 |
| U31C G66C C67G | < 1e-05 |  |  |  |  |
| C10U U31C G66U | < 1e-05 | < 1e-05 |  |  | < 1e-05 |
| C11G A12C G38A | < 1e-05 |  |  |  |  |
| A15U A36G U69G | 3.94e-05 ± 1.7e-05 |  |  |  |  |
| G7U G62C | < 1e-05 | < 1e-05 | < 1e-05 | < 1e-05 | < 1e-05 |
| A15U C16A G40A C68U U69A | < 1e-05 |  |  |  | < 1e-05 |
| G40C C50U U57A C58G U65A |  | < 1e-05 |  | < 1e-05 |  |
| A6C U57C |  | < 1e-05 | < 1e-05 | < 1e-05 | < 1e-05 |
| C16U A64G U65A C70U |  | 8.56e-05 ± 2.7e-05 | 0.00104 ± 0.00025 | 0.000964 ± 0.00024 |  |

Source: the supplement of paper PMC7125110
